± gives the standard deviation of the averaged measurements.
B1: library; numbered along this chain (parent)
chain: MNIQIGELAKRTACPVVTIRFYEQEGLLPPPGRSRGNFRLYGEEHVERLQFIRHCRSLDMPLSDVRTLLSYRKRPDQDCGEVNMLLDEHIRQVESRIGALLELKHHLVELREACSGARPAQSCGILQGLSDCVCDTRGTTAHPSD

Columns and labels:
[1] = variants of: B1; test: sfGFP reporter fluorescence (15 h) (µM FITC); higher = higher leak; conditions: library round: Round 1; ligand: none
Procedure, shortened: (§1)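 With 1 µM lead chloride, 30 µM zinc acetate or no metal present, 1 μL Echo-assembled reactions were incubated 15 hr at 30 °C. They contained BL21 Star (DE3) PANOx-SP extract, 30 μg/mL GamS, the pPbrR-sfGFP reporter plasmid and PCR-made linear PbrR templates Echo-normalized to 5 nM. Endpoint sfGFP fluorescence was read on a Synergy Neo2 at 485/528 nm against FITC standards in 50 mM sodium borate pH 8.5. Results are expressed as µM FITC.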

[2] = variants of: B1; test: sfGFP reporter fluorescence (15 h) (µM FITC); higher = stronger transcriptional activation; conditions: library round: Round 1
Procedure, shortened: as §1

[3] = variants of: B1; test: sfGFP reporter fluorescence (15 h) (µM FITC); higher = higher leak; conditions: library round: Round 0; ligand: none
Experimental: (§2)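 Cell-free (BL21 Star DE3 extract, PANOx-SP) biosensing: 1 µL Echo-assembled reactions with linear PbrR variant templates (5 nM) and pPbrR-sfGFP reporter, with 1 µM Pb (lead chloride), 30 µM Zn (zinc acetate) or no ligand; endpoint sfGFP fluorescence after 15 h at 30 °C, calibrated as µM FITC. Round 0 library (alanine scan, site saturation, combinatorial) of PbrR from Cupriavidus metallidurans; 2 biological replicates.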

[4] = variants of: B1; test: sfGFP reporter fluorescence (15 h) (µM FITC); higher = stronger transcriptional activation; conditions: library round: Round 0
Experimental: as §2

| Variant | sfGFP reporter fluorescence [1] | sfGFP reporter fluorescence ([2]; ligand: 1 µM Pb) | sfGFP reporter fluorescence ([2]; ligand: 30 µM Zn) | sfGFP reporter fluorescence [3] | sfGFP reporter fluorescence ([4]; ligand: 1 µM Pb) | sfGFP reporter fluorescence ([4]; ligand: 30 µM Zn) |
| --- | --- | --- | --- | --- | --- | --- |
| L107C G128I P143A | 0.52 ± 0.062 | 1.09 ± 0.32 | 2.25 ± 0.092 | – | – | – |
| D87E D131C | 0.0622 ± 0.0025 | 0.0742 ± 0.0072 | 0.134 ± 0.013 | – | – | – |
| I125L D131C | 0.06 ± 0.0018 | 0.0617 ± 0.0015 | 0.0593 ± 0.0014 | – | – | – |
| H142C P143A | 0.0676 ± 0.0022 | 0.0772 ± 0.0027 | 0.384 ± 0.03 | – | – | – |
| D131L D135A | 0.0688 ± 0.0015 | 0.0969 ± 0.027 | 0.476 ± 0.055 | – | – | – |
| D131L D135S | 0.0691 ± 0.0011 | 0.0943 ± 0.002 | 0.588 ± 0.05 | – | – | – |
| K104A G128M | 0.0657 ± 0.0021 | 0.109 ± 0.01 | 0.897 ± 0.013 | – | – | – |
| R91A K104V | 0.0657 ± 0.0027 | 0.119 ± 0.002 | 0.748 ± 0.029 | – | – | – |
| G128I D131C | 0.0762 ± 0.0028 | 0.146 ± 0.018 | 0.618 ± 0.011 | – | – | – |
| G128I D131S | 0.0878 ± 0.004 | 0.253 ± 0.025 | 1.43 ± 0.2 | – | – | – |
| G128I D131E | 0.0825 ± 0.0029 | 0.203 ± 0.022 | 1.34 ± 0.037 | – | – | – |
| G128I D135P | 0.074 ± 0.0013 | 0.172 ± 0.013 | 0.904 ± 0.084 | – | – | – |
| G128I D135A | 0.0699 ± 0.0036 | 0.12 ± 0.0083 | 0.64 ± 0.032 | – | – | – |
| E109L G128H P143L | 0.0639 ± 0.00092 | 0.0852 ± 0.0089 | 0.204 ± 0.018 | – | – | – |
| Q127A D135P | 0.0621 ± 0.0012 | 0.0781 ± 0.0053 | 0.244 ± 0.021 | – | – | – |
| I90L D131C | 0.0627 ± 0.00064 | 0.0647 ± 0.0038 | 0.122 ± 0.0066 | – | – | – |
| V108L R111L | 0.0611 ± 0.00085 | 0.0617 ± 0.0045 | 0.114 ± 0.0047 | – | – | – |
| L110I R111A | 0.0628 ± 0.00092 | 0.0635 ± 0.0042 | 0.415 ± 0.045 | – | – | – |
| N2A | – | – | – | 0.0517 ± 0.001 | 0.0614 ± 0.0065 | 0.801 ± 0.036 |
| E109A D131C | 0.0641 ± 0.0019 | 0.0804 ± 0.0035 | 0.462 ± 0.0051 | – | – | – |
| E94D K104V | 0.0655 ± 0.0018 | 0.101 ± 0.047 | 0.352 ± 0.039 | – | – | – |
| N83V C134S | 0.0579 ± 0.00097 | 0.0667 ± 0.0035 | 0.055 ± 0.00064 | – | – | – |

| Variant | sfGFP reporter fluorescence [1] | sfGFP reporter fluorescence ([2]; ligand: 1 µM Pb) | sfGFP reporter fluorescence ([2]; ligand: 30 µM Zn) | sfGFP reporter fluorescence [3] | sfGFP reporter fluorescence ([4]; ligand: 1 µM Pb) | sfGFP reporter fluorescence ([4]; ligand: 30 µM Zn) |
| --- | --- | --- | --- | --- | --- | --- |
| M84A D131H | 0.0584 ± 0.0011 | 0.0712 ± 0.002 | 0.463 ± 0.061 | – | – | – |
| L107C G128I D135A P143K | 0.787 ± 0.091 | 1.52 ± 0.079 | 2.47 ± 0.14 | – | – | – |
| G128L D135A | 0.075 ± 0.0011 | 0.155 ± 0.011 | 0.981 ± 0.14 | – | – | – |
| D131S P143A | 0.0606 ± 0.0013 | 0.07916 ± 0.00037 | 0.373 ± 0.042 | – | – | – |
| D131S D135P | 0.0663 ± 0.0043 | 0.105 ± 0.0076 | 0.547 ± 0.082 | – | – | – |
| D131S D135A | 0.0649 ± 0.0016 | 0.0893 ± 0.0049 | 0.459 ± 0.015 | – | – | – |
| E109D D135R | 0.06377 ± 0.00037 | 0.0733 ± 0.0076 | 0.422 ± 0.031 | – | – | – |
| D131T D135A | 0.0636 ± 0.0011 | 0.08075 ± 0.00021 | 0.365 ± 0.0092 | – | – | – |
| D131T D135Y | 0.074 ± 0.0013 | 0.0933 ± 0.014 | 0.801 ± 0.026 | – | – | – |
| G128H D131C | 0.0654 ± 0.0018 | 0.0887 ± 0.01 | 0.187 ± 0.02 | – | – | – |
| K104V G128M D135A | 0.103 ± 0.0031 | 0.291 ± 0.048 | 1.8 ± 0.11 | – | – | – |
| D131F D135A | 0.0667 ± 0.0016 | 0.071 ± 0.0022 | 0.345 ± 0.018 | – | – | – |
| K104V V108R | 0.109 ± 0.0031 | 0.386 ± 0.041 | 1.52 ± 0.1 | – | – | – |
| K104V V108K | 0.109 ± 0.0044 | 0.316 ± 0.063 | 1.44 ± 0.15 | – | – | – |
| D135S P143W | 0.0694 ± 0.00085 | 0.0798 ± 0.0084 | 0.355 ± 0.051 | – | – | – |
| L107C G128H | 0.132 ± 0.0069 | 0.409 ± 0.075 | 1.66 ± 0.14 | – | – | – |
| N83T R111L | 0.0571 ± 0.0031 | 0.0683 ± 0.0036 | 0.167 ± 0.011 | – | – | – |
| N83T R111D | 0.0624 ± 0.00076 | 0.06 ± 0.0029 | 0.068 ± 0.0024 | – | – | – |
| N83T R111F | 0.0639 ± 0.0014 | 0.0644 ± 0.004 | 0.085 ± 0.0026 | – | – | – |
| N83T R111A | 0.0564 ± 0.00097 | 0.0834 ± 0.0021 | 0.341 ± 0.031 | – | – | – |
| D131A C134V | 0.0781 ± 0.0011 | 0.12 ± 0.0056 | 1.24 ± 0.15 | – | – | – |
| R111V P143T | 0.0627 ± 0.002 | 0.0715 ± 0.0029 | 0.25 ± 0.011 | – | – | – |

Reference: the supplement of paper PMC12783771
